Series [1] concerns the target wild-type manganese superoxide dismutase from Candida albicans cytosol (Candida albicans). Kind of series: SEC; HPLC-SEC (TSK gel G2000SW), as-isolated proteins, 10 µM to 200 nM with respect to monomer, 10 mM potassium phosphate pH 6.7; Kd of the step dimer to monomers, from area integrals of the elution peaks. (SEC sorts molecules by how far they enter the pores of the column.)

The target of series [2] is K184R, L185P CaMnSODc (Candida albicans).
The target is the same in series [3]. Kind of series: crystal structure; hanging-drop vapor diffusion at 4°C, protein 7 mg/mL; methylated K182R, A183P ScMnSOD in 0.1 M tri-ammonium citrate pH 7, 20% PEG 3,350; unmodified K184R, L185P CaMnSODc in 2 M ammonium sulfate.
The target is the same in series [4]. Nature of the series: SEC; HPLC-SEC (TSK gel G2000SW), as-isolated proteins, 10 µM to 200 nM with respect to monomer, 10 mM potassium phosphate pH 6.7; Kd of the step dimer to monomers, from area integrals of the elution peaks.
For series [5] the target is unchanged. The source holds these as a separate data set.
For series [6] the target is unchanged. This is another data set of the same source.
Series [7] deals with the molecule itself. Nature of the series: SEC; HPLC-SEC (TSK gel G2000SW), as-isolated proteins, 10 µM to 200 nM with respect to monomer, 10 mM potassium phosphate pH 6.7; Kd of the step dimer to monomers, from area integrals of the elution peaks.
Series [8] deals with the molecule itself. Nature of the series: crystal structure; hanging-drop vapor diffusion at 4°C, protein 7 mg/mL; methylated K182R, A183P ScMnSOD in 0.1 M tri-ammonium citrate pH 7, 20% PEG 3,350; unmodified K184R, L185P CaMnSODc in 2 M ammonium sulfate.

A word on the stoichiometry N: it is the number of molecules, sites or subunits per partner or assembly. For orientation: Kd means a measure of binding affinity in units of concentration.

Molecule “wild-type manganese superoxide dismutase from Candida albicans cytosol (enzyme)” yielded a stoichiometry N in series [1] of 2.
The molecule K184R, L185P CaMnSODc (enzyme) returned a rate constant of O2^- dismutation by pulse radiolysis at 1 µM to 2.2 µM enzyme in series [2] of 9.9e+08 M⁻¹ s⁻¹. The stoichiometry N was determined as 4 in series [3] and 2 in series [4]. The molecule also came in with a Kd in series [4] of 2000 nM. The SOD activity (pulse radiolysis) after heating at 41°C (% activity lost) in series [5] was 70. This molecule registered a pK (the pH at which the SOD activity drops by 50%), pulse radiolysis in series [6] of 8 pH.

B1: wild-type manganese superoxide dismutase from Saccharomyces cerevisiae mitochondria (enzyme, S. cerevisiae, UniProt P00447 27-233, looked up)
chain: KVTLPDLKWDFGALEPYISGQINELHYTKHHQTYVNGFNTAVDQFQELSDLLAKEPSPANARKMIAIQQNIKFHGGGFTNHCLFWENLAPESQGGGEPPTGALAKAIDEQFGSLDELIKLTNTKLAGVQGSGWAFIVKNLSNGGKLDVVQTYNQDTVTGPLVPLVAIDAWEHAYYLQYQNKKADYFKAIWNVVNWKEASRRFDAGKI
notes: Manganese superoxide dismutase of S. cerevisiae mitochondria (ScMnSOD), expressed from a 2-kb genomic BamHI fragment containing the gene; As isolated, 0.70 Mn per monomer; also called ScMnSOD; WT ScMnSOD; source: S. cerevisiae sod2Δ strain (EG110), overexpressed from YEp352-ScMnSOD, purified
In the case of B1, the “stoichiometry N” value in series [7] turned out to be 4.

B2: methylated K182R, A183P ScMnSOD (enzyme, S. cerevisiae, UniProt P00447 27-233, looked up)
chain: KVTLPDLKWDFGALEPYISGQINELHYTKHHQTYVNGFNTAVDQFQELSDLLAKEPSPANARKMIAIQQNIKFHGGGFTNHCLFWENLAPESQGGGEPPTGALAKAIDEQFGSLDELIKLTNTKLAGVQGSGWAFIVKNLSNGGKLDVVQTYNQDTVTGPLVPLVAIDAWEHAYYLQYQNKRPDYFKAIWNVVNWKEASRRFDAGKI
modifications: all free amino groups of the lysine residues and the N-terminus methylated (reductive methylation, confirmed by mass spectrometry)
notes: Manganese superoxide dismutase of S. cerevisiae mitochondria (ScMnSOD) with K182R and A183P; The form that was crystallised; 0.71 Mn per monomer; theoretical mass of the methylated protein 23,589 Da; also called methylated RP-mutant ScMnSOD; source: S. cerevisiae sod2Δ strain (EG110), overexpressed, purified, then reductive methylation
For B2, in series [8], the “stoichiometry N” value is 4.

B3: K182R, A183P ScMnSOD (enzyme, S. cerevisiae, UniProt P00447 27-233, looked up)
chain: KVTLPDLKWDFGALEPYISGQINELHYTKHHQTYVNGFNTAVDQFQELSDLLAKEPSPANARKMIAIQQNIKFHGGGFTNHCLFWENLAPESQGGGEPPTGALAKAIDEQFGSLDELIKLTNTKLAGVQGSGWAFIVKNLSNGGKLDVVQTYNQDTVTGPLVPLVAIDAWEHAYYLQYQNKRPDYFKAIWNVVNWKEASRRFDAGKI
notes: Manganese superoxide dismutase of S. cerevisiae mitochondria (ScMnSOD) with K182R and A183P; Unmethylated form used for HPLC-SEC; as isolated, 0.71 Mn per monomer; also called RP-mutant ScMnSOD; as-isolated K182R, A183P ScMnSOD; source: S. cerevisiae sod2Δ strain (EG110), overexpressed from YEp352-ScMnSOD (mutant), purified
In the case of B3, the “stoichiometry N” value in series [7] was determined as 4.

The record behind these values is publication PMC3646814, “Tetramerization Reinforces the Dimer Interface of MnSOD” (PLoS ONE, 2013).
